# Assay results published in the nanobody polyreactivity screen of Harvey et al. (2022).
# Assay: yeast display, Sf9 membrane polyspecificity reagent, FACS + sequencing; frameworks hold sequencing errors
# Outline: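 Nanobodies from a synthetic yeast display library (Saccharomyces cerevisiae BJ5465), induced 36–48 hours with galactose, were stained 1 hour at 4 °C with 10% biotinylated, detergent-solubilized Sf9 membrane reagent, enriched on streptavidin microbeads, then FACS-sorted. Anti-HA (expression) and streptavidin (reagent binding) fluorescence set low and high (top ~1%) gates. Polyreactivity labels come from the gate of origin. Genes were colony-PCR amplified, MiSeq 2 × 250 sequenced and filtered by CDR length.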
row,Sequence,polyreactivity (PSR sort gate)
1,QVQLVESGGGLVQAGGSLRLSCAASGFTFGSYAMGWYRQAPGKERELVAVITRSGRTNYADSVKGRFTISRDNAKNTVYLQMNSLKPEDTAVYYCNADDVDDEVSPDLTEMDYWGQGTQVTVSS,low polyreactivity
2,QVQLVESGGGLVQTGGSLRLSCAASGRIFRSYAMGWYRPAPGKERELVAAISGSGGSTYYADSVKGRFTISRDNAKNTVYVQMNSLKPEDTAVYYCNACKVHPFSTRFYYWGQGTQVTVSS,low polyreactivity
3,QVQLVESGGGLVQAGGSLRISCADSGSIFHPNAMGWYRQAPGKERELVAAISIGGDTYYADSVKGRFTISRDNAKNTVYLQMNSLKPEDTAVYYCAVTYVGHVYEYYYWGQGTQVTVSS,low polyreactivity
4,QVQLVESGGGLVQAGGSLRLSCAASGLTFYYYAMGWYSQPPGKERELVAAISIGGSTDYADSVKGRFTISRDNAKNTVYLQMNSLKPEDTAVYYCNVDDNSEYEYWGQGTQVTVSS,low polyreactivity
5,QVQLVESGGGLVQAGGSLRLSCAASGRIFYFYAMGWSRQAPGKERELVAAITGSAGGTYYADSVKGRFTISRDTAKNTVYLQMNSLKPEDTAVYYCAAKYYGNKRDLYYWGQGTQVTVSS,low polyreactivity
6,QVQLQDSGGGLVLAGGSLRLSCSASGNISVYGSMGWYRQAPGKEREFVATIDPGTNTNYADSVKDRFTISRDNAKNTVYLQMNSLKPEDTAVYYCAVEAGSDWPYRYWGQGTQVTVSS,low polyreactivity
7,QVQLVESGGGLVQAGGSLRLSCAASGSTFEYYAMGWYRQAPGKERELVAGISTGGSTNYADSVKGRFTISRDNAKNTVYVQMNSLKTEDSAVYYCKRDWALYVFCRHYHAYYSWGQRTQVTVSS,low polyreactivity
8,QVQLVESGGGLVQAGGSLRLSCAASGLIFTVNAMGWYRQAPGKERELVAAISQSGGSTYYADSVKGRFTISRDNAKNTVYLQMNSLKPEDTAVYYCARGSWRHFRLYGFDYWGQGTQLTVSS,low polyreactivity
9,QVQLVESGGGLVQAGGSLRLSCAASGSIFGYAMGWYRQAPGKARELVAAISFSGVSTYYADSVKGRFTITRDNAKNTVYLQMNSLKPEDTAGYYCNAYSDGDEDYWGQGTQVNVSS,low polyreactivity
10,QVQLVESGGGLVQAGGSLRLSCAASGSTLYFNAMGWYRQAPGKERELVATITSGGSTYYADSVKGRFTISRDNAKNTVYFQMNSLKPEDTAAYYCNADFGSYATNGLTPLYDYWGQGTQVTVSS,high polyreactivity
11,QVQLVESGGGLVQAGGSLRLSCAASGRTFKDYAMGWYRQAPGKERELVAAISWSGGDTYYADSVKGRFTISRDNAKNTVYLQMNSLKPEDTAVYYCNADPSGVFFYSLEFDYWGQGTQVTVSS,low polyreactivity
12,QVQLVESGGGIVQAGRSLRLSCAASGRTFHGYAMGWYRQAPGKERELVAAITGTGGRTYYAESVKGRFTISRDKAKNTVYLQMNSLKPEDTAVYYCAARPWIKSGYWGQGTQVTVSS,high polyreactivity
13,QVQLVESGGGIVQAGGSLRLSCAASGGTFPWYTMVWYRQAPGKERELVATIRGRDGSTFYADSVKGRFTISRDNAKNTVYLQMNSLIPEVTAVYYCAAVGRRKDLRWGVYYRFDYWGQGTQVTVSS,low polyreactivity
14,QVQLVESGGGLVQAGGSLRLSCAASGSTFYVYPMGWYRQAPGKERELVAAITRGGTTYYADSVKGRFTISRDNAKNTVYLQMNSLKPEDTAVYYCAKYLTGAADLVPEYDYWGQGTQVTVSS,low polyreactivity
15,QVLLVESGGGLVQAGGSLSLSCAASGLIFVNAMGWYRQAPGKEREFVAAITYSTGSTYYADSVKGRFTISRDNAKNTVYLQMNSLKPEDTAFYYCAKDRSGHGTERDDWGQGTQVTVSS,low polyreactivity
16,QGQLVESGGGLVQAGGSLRLSSAASGNTFYGYAMGWYRQSPGKERELVASITLSGDSTYYADSVKGRFTISRDNAKNTVYLQMNSLKPEDTAVYYWAGVYTYPLGYYHYTYDYWGQGTQVTVSS,low polyreactivity
17,QVQLVESGGGLVQAGRSLRLSCAASGFTFRWYGMGWYRQAPGKERELVAAISWSGGTTYYADSVKGRFTISRDNAKKTVYLQMNSLKAEDTAVYYCAASFQTFASRYDYWGQGTQVTVSS,high polyreactivity
18,QVQLEESGGGVVQAGGSLRLSCAASGRIFDRYDMARYRQAPGKERELVASISSGGSTYYADSVKGRFTISRVTAKNPVYLQMNSLKPEDTAVYYCNAEARSRRYRYDYWGQGTQVTVSS,high polyreactivity
19,QVQLVESGGGLVQAGGSLRLSCAASGSTFFIYAMGRYRQAPGEERELVAAITSGGTYADSVKGRFTISRDNAKNTVYLQMNSLKPVDTAVYYCNAGNNVVVDYDYWGQGTQVTVSS,low polyreactivity
20,QVQLVESGGGLVQAGGSLRLSCAASGSTFVAYTMGWYRQAPGKERELVAAITKRGSSTYYADSVKGRFTISRDNAKNTVYLHMNSLKPEDTAVYYCAAARSLKSYEGDYWGQGTQVTVSS,high polyreactivity
21,QVQLVESGGGLVHPGGRLRLSCAASGRIYKYYVMGWYRQAPGKEREFVAAISGRGGRTYYADSVKGRFTISRDNAKNTVYLQKNSLKPEDTAVYYCATERQDRGPLGYNYWGQGTQVTVSS,high polyreactivity

row,Sequence,polyreactivity (PSR sort gate)
1,QVQLVESGGGFVQAGGSLRLSCAASGLIFGRYGLGWYRQAPGKAREFVAAITQSGGATYYADSVKGRFTISRDNAKNTVYLQMNSLKPEDTAVYYCNAPIAYWRVHDKYGYWGQGTQLTVSS,low polyreactivity
2,QVQLVESGGGLVQAGGSLRLSCAASGSTFSDYAMGWYRQAPGKERELVADISSDGSTYYADSVKGRFTISRDNAKNTVYLQMNSLKPEDTAVYYCNAGYPDYDWTWWHISYDYWGQGTQVTVSS,low polyreactivity
3,QVQLVESGGGLVQAGGSLRLSCAASGRTFPVYAMGWYRQAPGQERELVAAINTSGTSTYYADSVKGRFTISRDNAKNTVYLQMNSLKPEDTAVYYCATRYRYTYYWGQGTQVTVSS,high polyreactivity
4,QVQLVESGGGLVQAGGSLRLSCAASGSTFSSYAMAWYRQAPGKERELVAAISSVGVDTYYADSVKGRFTISRDNAKNTVYLQMISLKPEDTAVYYCAAGRYGWWRHYFVFKYDYWGQGTQVTVSS,low polyreactivity
5,QVQLVESGGGLVQAGGSLRLSCAASGSIFIRNVMGWSRQAPGKERELVAAISSRGGSTYYADSVKGRFTISRDNAKNTVDLQMNSLKPEDTAVYYCNRYSYLFPYYWKYDYWGQGTQVTVSS,high polyreactivity
6,QVQLVESGGGLVQAGGSRRLRCAASGSTFDVYAMGWYRQAPGKESELVAVINTSGTRTYYADSVKGRFTISRDNAKNTVYLQMNSLKPEDTAVYSCNAGGHLEMNYWGQGTQVTVSS,low polyreactivity
7,QVQLVESGGGLVQAGGSLRLSCAASGSTFGYYAMGWYRQAPGKERELVARISGGTRTNYADSVKGRFTISRDNAKNTVYLQMNSLKPEDTAVYYCNAYYYIPFEGRGYSKMDYWGQGTQVTVSS,high polyreactivity
8,QVQLVESGGGLVQAGGSLRLSCAASGRTFGRYAMGWYRQAPGKESELVAAISWTGGRTYYADSVKGRFTISRDNAKNTVYLQMNSLKPEDTAVYYGAALYDRIPAASRGYDSWGQVTQVTVSS,high polyreactivity
9,QVQLVESGGGLVQAGGSLRLSCSASGLTFGNNAMGWYRQAPGKETELVAAISSDGTTYYADSVKGRFTISRDHAKNTVYLQMNSLKPEDSAVYYCAALYGPGREYDYWGQGTQVTVSS,low polyreactivity
10,QVQLVESGGGLVQAGGSLRLSCAASGRTFTIYAMGSYRQAPGKERELVAAITRSGGGTYYADSVKGRFTISRDNAKNTVYFQMKSLKPEDTAVYYCARDKHWFYGVIGPEDYWGQGTQVTVSS,low polyreactivity
11,QVQLVESGGGLVQAGGSLRLSCAASGSIFDFYAMGWYRQAAGKERELVASITGRGGSTYYADSVKGRFSISRDKAKNTVYFQMNSLKPEDTAVYYCAAATFGRGGFEYWGQGTKVTVSS,high polyreactivity
12,QVQLVESGGGLVQAGGSLRLSCAASGRTFWVYAMGWYRQAPGKEREFVAAISGSVGSTYYADSVKGRFTISRDNAMKTVYLQMNSLKPEDTAVYYCAARQRRSEYGYWGQGTQVTVSS,high polyreactivity
13,QVQLVESGGGLVQAGGSLRLSCDASGRIFRYNSMGWYRQAPGKEREFVAAITWRGGSTYYADSVKGRFTISRDNAKYNVYFQMNSLKPEDTAVYYCATRSPFGAAYEYGYWGQGTQVTVSS,high polyreactivity
14,QVQLVESGGCLVQAGGSLRLSCAASGFIFSRNAIGWYRQAHGKERELVAAISLRGGSTYYADSVKGRFTISRDYAKNTVYLQMNSLKPEDTAVYYCAAPLFSGYDYWVQGTQVTVSS,low polyreactivity
15,QVQLVESGGGLVQAGGSLRLSCAATGRIFIDNTMGWYRQAPGKERELVAAISWSGGSTYYADSVKGRFTISRDNAKNTVYLQMNCLKPEDTAVYYCAARRLRSNGRTWAVTYDYWGQGTQVTVSS,low polyreactivity
16,QVQLVESGVGLVQAGGSLRLSCAASGSTFTANAMGLYRQAPGKERELVAAISSTGGSTYYADSVKGRFTISRDNEKNTVYLQMNSLKPEDTAVYYCNKDGPYQVITYDYWGQGTKVTVSS,high polyreactivity
17,QVQLVESGGGLVQAGGSLRLSCAASGIIFTDNAMGWYRQAPGKERELVATISWSTDNTYYADSVKGRFTISRDNAKNTVYLQMNSLKPEDTAVYYCAAEEYYAYWYQYDYWGQATQVTVSS,low polyreactivity
18,QDQLVESRVGLVQAGGSLRLSCAATGFTFLSYTMGWYIQAPCKERELLADNTRSGGSTYYADSVKGRFTISRDNAKNSVYLQMNSLKPEDTAVYFCAARYSYDRYRGSQQFYYWGQGTQVTVSS,high polyreactivity
19,QVQLVDSGGGLVQAVGSLRLSCAASGRTFYANAMGWYRQAPGKERELVAAISSRSGTTHYADSVKGRFTISRDNAKNTVYLQMNSLKPEDTAVYYCNRQKWRLLTMGAHNRQAYDSWGQGTQVSVSS,low polyreactivity
20,QVQLVESGGGLVQAGGSLRLSCAASGRTFTRYAMGWYRQAPGKERELVAAISRGGGGTYYADSVKGRFTISRDNAKNTVYLQMNSLKPEDTAVYYCAADGDRSAQRYTGYYYWGQGTQVTVSS,high polyreactivity
